Consider 5 molecules from patent US20220396617A1 (BEIJING MABWORKS BIOTECH, published 2022).

Assay [1] concerns the target T1, TIGIT (ECD)-hFc (human, UniProt Q495A1 22-141).
T1 construct: bought protein; also called recombinant human TIGIT (ECD)-hFc; Cat #: 10917-H02H, Sino Biological; not shown: human Fc (hFc) of the bought protein
T1 sequence: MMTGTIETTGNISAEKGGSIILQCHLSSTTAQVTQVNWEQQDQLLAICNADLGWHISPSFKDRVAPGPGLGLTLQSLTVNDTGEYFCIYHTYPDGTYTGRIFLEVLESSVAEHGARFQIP
The assay is described as follows: FACS blocking assay (protocol of Example 7): serially diluted antibody pre-incubated with TIGIT (ECD)-hFc, then binding of TIGIT (ECD)-hFc to A549/human PVR cells measured; blocked ligand: human PVR. As for the experimental part: (§1) After incubated at 4° C. for 1 h, plates were washed 3 times with PBST and then added with PE coupled Goat Anti-human IgG (Cat #: PAI-86078, Thermofisher, US) diluted 500×. After incubation at 4° C. for 1 h, the plates were washed with PBST for 3 times and then cell fluorescence was monitored using a FACS machine (BD).

The target of assay [2] is T2, human TIGIT expressed on HEK293A cells (human, UniProt Q495A1 22-244).
T2 construct: also called HEK293A/human TIGIT cells
T2 sequence: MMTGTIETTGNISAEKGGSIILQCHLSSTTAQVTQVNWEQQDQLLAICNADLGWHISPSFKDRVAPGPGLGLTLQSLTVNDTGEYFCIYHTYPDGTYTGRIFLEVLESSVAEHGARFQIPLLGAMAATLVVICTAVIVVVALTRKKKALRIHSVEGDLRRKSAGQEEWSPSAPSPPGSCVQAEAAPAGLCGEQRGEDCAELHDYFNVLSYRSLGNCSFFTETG
The assay is described as follows: FACS, HEK293A/human TIGIT cells, serially diluted antibody (protocol of Example 5) [A]. As to the method: (§2) After incubated at 4° C. for 1 h, plates were washed 3 times with PBST. Then, APC coupled Goat Anti-Mouse IgG (Cat #: 405308, BioLegend, US) diluted 500x was added to the plates. After incubation at 4° C. for 1 h, the plates were washed with PBS for 3 times and then cell fluorescence was monitored using a FACS machine (BD).
(In general: In flow cytometry, cells or beads pass a laser one at a time.)

In assay [3] the target is T2, human TIGIT expressed on HEK293A cells. The assay is described as above. The source holds these as a separate data set.
The target in assay [4] is T3, monkey TIGIT expressed on HEK293A cells (monkey).
T3 construct: also called HEK293A/monkey TIGIT cells
The assay is described as follows: FACS, HEK293A/monkey TIGIT cells, serially diluted antibody (protocol of Example 5) [B]. As for the experimental part: as §2

In a further assay the target is T4, human TIGIT (ECD)-his (human, UniProt Q495A1 22-141).
T4 construct: bought protein; also called hTIGIT(ECD)-his; Cat #: 10917-H08H, Sino Biological; not shown: his tag of the bought protein
T4 sequence: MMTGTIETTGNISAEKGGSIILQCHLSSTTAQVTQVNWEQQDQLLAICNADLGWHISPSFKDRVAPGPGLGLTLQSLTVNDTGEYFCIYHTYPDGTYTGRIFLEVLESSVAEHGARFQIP
The assay can be described thus: ELISA, coated human TIGIT (ECD)-his (table head says FACS). As for the experimental part:
Plates were washed for 3 times with PBST (PBS+0.05% Tween20), added with Goat-anti-mouse IgG-HRP (Cat #: A9309-1 ml, Sigma, US) diluted 5000×, and incubated for 1 h at room temperature. Plates were incubated with freshly prepared Ultra-TMB (Cat #: 555214, BD, US) for 5 minutes at room temperature for color development.
(An ELISA detects its analyte on a solid surface through an enzyme-linked reagent.)

The target in assay [5] is T1, TIGIT (ECD)-hFc. The assay can be described thus: FACS blocking assay: antibody preincubated with TIGIT (ECD)-hFc, binding to A549/human PVR cells. As for the experimental part:
as §1

The target of assay [6] is T2, human TIGIT expressed on HEK293A cells. The assay can be described thus: FACS on HEK293A/human TIGIT cells. As to the method: as §2
The target of assay [7] is T3, monkey TIGIT expressed on HEK293A cells. The assay can be described thus: FACS on HEK293A/monkey TIGIT cells. As to the method: as §2
Assay [8] has as its target T2, human TIGIT expressed on HEK293A cells. The assay is described as follows: cell-based or functional assay.
For assay [9], the target named is T5, monkey TIGIT (ECD)-hFc (monkey (cynomolgus)).
T5 construct: bought protein; also called cynoTIGIT(ECD)-hFc; cynomolgus TIGIT (ECD)-hFc; not shown: human Fc (hFc) of the bought protein
The assay is described as follows: ELISA, coated monkey TIGIT (ECD)-hFc (table head says FACS).

Assay [10] deals with T5, monkey TIGIT (ECD)-hFc. The assay is described as follows: SPR (BIAcore 8K), monkey TIGIT (ECD)-hFc on CM5 chip, antibody injected. A general note: SPR reads the build-up and loss of mass on a sensor chip optically.

Where two headings read alike, the source gives them in different places.

T3 sequence (chain, as listed by the source limits assumed): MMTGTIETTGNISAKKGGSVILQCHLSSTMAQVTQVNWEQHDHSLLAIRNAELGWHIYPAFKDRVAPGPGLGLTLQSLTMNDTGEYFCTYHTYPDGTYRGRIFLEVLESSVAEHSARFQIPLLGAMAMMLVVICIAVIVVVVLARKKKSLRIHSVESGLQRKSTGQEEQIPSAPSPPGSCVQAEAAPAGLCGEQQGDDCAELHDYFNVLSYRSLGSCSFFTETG

B1: chimeric 149G11 (antibody, human IgG1, kappa, V domains shown)
VH: QVQLQQSGTELVRPGTSVKMSCRTAGYTFTNYWIHWVKQRPGHGLEWIGDIYPGGRYSNYNEKFRGKATLTADTSSSTAYMELSSLTSEDSAIYYCARYYESAMDFWGQGTSVTVSS
VL: DIVMSQSPSSLAVSVGEKVTVNCKSSQNLLYNSNQKSYLAWFQQKPGQSPKLLIYWASTRESGVPDRFTGSGSGTDFTLTISSVKAEDLAVYYCQQYYNYPFTFGSGTKLEIKR
notes: mouse variable regions with human IgG1/kappa constant regions; also called chimeric antibody 149G11
Broadly, the EC50 (read off the curve) is the concentration that produces a half-maximal response. Take B1: in the assay with TIGIT (ECD)-hFc [1], the “IC50 (read off the curve)” value is around 3 µg/mL. Further, the figures for the “EC50 (read off the curve)” value in assay [2], in [3] and in [4] were around 0.2 µg/mL, around 0.2 µg/mL and around 0.5 µg/mL, respectively.

B2: mouse 149G11 (antibody, V domains shown)
VH: QVQLQQSGTELVRPGTSVKMSCRTAGYTFTNYWIHWVKQRPGHGLEWIGDIYPGGRYSNYNEKFRGKATLTADTSSSTAYMELSSLTSEDSAIYYCARYYESAMDFWGQGTSVTVSS
VL: DIVMSQSPSSLAVSVGEKVTVNCKSSQNLLYNSNQKSYLAWFQQKPGQSPKLLIYWASTRESGVPDRFTGSGSGTDFTLTISSVKAEDLAVYYCQQYYNYPFTFGSGTKLEIK
notes: also called antibody from clone 149G11
What is called EC50 is the concentration giving half of the maximal effect. For B2, the EC50 amounted to 0.86 nM in the assay with human TIGIT (ECD)-his, 41 nM in the assay with TIGIT (ECD)-hFc [5], 0.1 nM in assay [6] and 1.2 nM in [7].

B3: Tiragolumab (antibody, V domains shown)
VH: EVQLQQSGPGLVKPSQTLSLTCAISGDSVSSNSAAWNWIRQSPSRGLEWLGKTYYRFKWYSDYAVSVKGRITINPDTSKNQFSLQLNSVTPEDTAVFYCTRESTTYDLLAGPFDYWGQGTLVTVSS
VL: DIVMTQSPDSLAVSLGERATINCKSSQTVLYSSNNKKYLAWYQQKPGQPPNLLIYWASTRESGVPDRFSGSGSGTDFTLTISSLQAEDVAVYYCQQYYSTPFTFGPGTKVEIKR
As usually defined, the Kd is the constant that tells how readily two partners part at equilibrium. With B3, the “EC50 (read off the curve)” value in [2] and in [4] was around 0.2 µg/mL each time. Moreover, the figures for the EC50 (in [6]; in assay [7]; with monkey TIGIT (ECD)-hFc [9]) were 0.44 nM, 0.9 nM and 0.14 nM, respectively. Also, the “NK92-mediated ADCC against HEK293A/human TIGIT cells, EC50” value in [8] was 0.0465 nM. For the same molecule, binding with monkey TIGIT (ECD)-hFc [10] was put at a Kd of 0.0622 nM.

B4: chimeric 70E11 (antibody, human IgG1, kappa, V domains shown)
VH: QVQLQQPGTDLVKPGASVRMSCKASGYTFTSYNVHWVKQTPGQGLEWIGTIYPGNLATSYNQKFKGKATLTADKSSTTAYMQLSSLTSEDSAVYYCARSGTMDYWGQGTTLTVSS
VL: ENVVTQSPAIMSASPGEKVTMTCRASSSISSTYLHWYQQKSGASPKLWIYNTQNLASGVPARISGSGSGTSYSLTISSVEAEDAATYYCQQFGGYPLITFGAGTKLELKR
notes: mouse variable regions with human IgG1/kappa constant regions; also called chimeric antibody 70E11
Turning to B4, in the assay with TIGIT (ECD)-hFc [1], the “IC50 (read off the curve)” value is around 3 µg/mL. For the same molecule, the concentration giving a half-maximal response (EC50 (read off the curve)) in assay [2] and in assay [4] was around 0.2 µg/mL in each case.

B5: mouse 70E11 (antibody, V domains shown)
VH: QVQLQQPGTDLVKPGASVRMSCKASGYTFTSYNVHWVKQTPGQGLEWIGTIYPGNLATSYNQKFKGKATLTADKSSTTAYMQLSSLTSEDSAVYYCARSGTMDYWGQGTTLTVSS
VL: ENVVTQSPAIMSASPGEKVTMTCRASSSISSTYLHWYQQKSGASPKLWIYNTQNLASGVPARISGSGSGTSYSLTISSVEAEDAATYYCQQFGGYPLITFGAGTKLELK
notes: also called antibody from clone 70E11
With B5, the EC50 in the assay with human TIGIT (ECD)-his is 0.82 nM; with TIGIT (ECD)-hFc [5], 43 nM; in [6], 0.56 nM; in assay [7] it was 0.39 nM.
